{
  "source": "patent US20090221680",
  "about": "“Aptamers that bind thrombin with high affinity” (published 2009)",
  "key": {"[1]": {"biological_target": "T1, thrombin (alpha-thrombin) (Homo sapiens, UniProt P00734;P00734 P00734:315-363,P00734:364-622)", "test": "filter; DPBS Ca2+ Mg2+, 0.1 mg/ml BSA, room temp"}, "[2]": {"biological_target": "thrombin (endogenous, in vivo, ACT of whole blood) (Macaca fascicularis, UniProt A0A2K5UZ51;A0A2K5UZ51 A0A2K5UZ51:325-360,A0A2K5UZ51:361-619)", "test": "inhibition; maximum ACT in monkey, IV bolus 0.46 umol/kg"}, "[3]": {"biological_target": "T1, thrombin (alpha-thrombin)", "test": "filter"}, "thrombin": {"biological_target": "thrombin (Sus scrofa, UniProt Q19AZ8;Q19AZ8 Q19AZ8:316-364,Q19AZ8:365-622)", "test": "filter; species cross-reactivity"}, "[4]": {"biological_target": "T2, thrombin (endogenous, clotting assay in plasma or whole blood) (Homo sapiens, UniProt P00734;P00734 P00734:328-363,P00734:364-622)", "test": "inhibition; PT at 10 uM"}, "[5]": {"biological_target": "T1, thrombin (alpha-thrombin)", "test": "filter; DPBS Ca2+ Mg2+, 0.1 mg/ml BSA"}, "prothrombin": {"biological_target": "prothrombin (Homo sapiens, UniProt P00734 P00734:44-622)", "test": "filter; 50 nM prothrombin", "settings": "tags: Athens Research", "procedure,_shortened": "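Trace 5′-³²P-labeled RNA clones incubated ±50 nM prothrombin with 0.1 mg/ml BSA in 1×DPBS (with Ca²⁺/Mg²⁺), 30 min. Bound RNA captured on nitrocellulose, free RNA on nylon; filters quantified by phosphorimaging. Single-point screen.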"}, "[6]": {"biological_target": "T1, thrombin (alpha-thrombin)", "test": "filter; NB, non binder"}, "[7]": {"biological_target": "T1, thrombin (alpha-thrombin)", "test": "filter; DPBS Ca Mg, BSA, RT"}, "[8]": {"biological_target": "T2, thrombin (endogenous, clotting assay in …)", "test": "inhibition; PT at 10 uM, instrument maximum"}, "[9]": {"biological_target": "T2, thrombin (endogenous, clotting assay in …)", "test": "inhibition; PT at 10 uM, parent 300 s"}, "[10]": {"biological_target": "T2, thrombin (endogenous, clotting assay in …)", "test": "inhibition; ACT at 10 uM"}},
  "data": [
    {"binder": "TCCCTGCAATTCGATCAGCAGGGGTGGTGTGGGTGGCTGAGGATCGATC (ssDNA)", "note": "[AMX(395)_A1]", "values": [
      {"measurement": "Kd", "setting": "[1]", "result": 6.4, "unit": "nM"}
    ]},
    {"binder": "CGCCTAGGTTGGGTAGGGTGGTGGCG (ssDNA)", "note": "[ARC2172]", "values": [
      {"measurement": "activity", "setting": "[2]", "result": 527, "unit": "s"},
      {"measurement": "Kd", "setting": "[3]", "result": 0.14, "unit": "nM"},
      {"measurement": "binding result", "setting": "thrombin", "result": "binds"}
    ]},
    {"binder": "TCCCATGAACTCAGGGTAATTTTTTGGTGTGGGTGGCTGAGGATCGATC (ssDNA)", "note": "[AMX(398)_D9]", "values": [
      {"measurement": "activity", "setting": "[4]", "result": 80.8, "unit": "s"},
      {"measurement": "Kd", "setting": "[5]", "result": 5.64, "unit": "nM"},
      {"measurement": "binding signal", "setting": "prothrombin", "result": 41.8, "unit": "% bound"}
    ]},
    {"binder": "TCCCGAGGGACGACGCCTAGGTTGGGTAGGGTGGTGGCTGAGGATCGATC (ssDNA)", "note": "[AMX(399)_C11]", "values": [
      {"measurement": "activity", "setting": "[4]", "result": 52.6, "unit": "s"},
      {"measurement": "Kd", "setting": "[5]", "result": 1.74, "unit": "nM"},
      {"measurement": "binding signal", "setting": "prothrombin", "result": 41.6, "unit": "% bound"}
    ]},
    {"binder": "TCCCGATTGGAAAGCCTAGGATGGGTAGGGTGGTGGCTGAGGATCGATC (ssDNA)", "note": "[AMX(399)_F12]", "values": [
      {"measurement": "activity", "setting": "[4]", "result": 74.9, "unit": "s"},
      {"measurement": "Kd", "setting": "[5]", "result": 0.66, "unit": "nM"},
      {"measurement": "binding signal", "setting": "prothrombin", "result": 48.2, "unit": "% bound"}
    ]},
    {"binder": "ACTGCCTAGGTTGGGTAGGGTGGTGGCAGT (ssDNA)", "note": "[ARC2169]", "values": [
      {"measurement": "activity", "setting": "[2]", "result": 542, "unit": "s"},
      {"measurement": "Kd", "setting": "[3]", "result": 0.135, "unit": "nM"}
    ]},
    {"binder": "ACTGCCTAGGTUGGGTAGGGTGGTGGCAGT (XNA, 2'-OMe U12, rest DNA)", "note": "[ARC2624]", "values": [
      {"measurement": "binding result", "setting": "[6]", "result": "no binding"}
    ]},
    {"binder": "ACTGCCTAGGTTGGGTAGGGUGGTGGCAGT (XNA, 2'-OMe U21, rest DNA)", "note": "[ARC2633]", "values": [
      {"measurement": "binding result", "setting": "[6]", "result": "no binding"}
    ]},
    {"binder": "TCCCCGATGTGTCAGCCTAGGGTGGTTAGGGTGGTGGCTGAGGATCGATC (ssDNA)", "note": "[AMX(398)_C5]", "values": [
      {"measurement": "activity", "setting": "[4]", "result": 64.7, "unit": "s"},
      {"measurement": "Kd", "setting": "[5]", "result": 2.2, "unit": "nM"},
      {"measurement": "binding signal", "setting": "prothrombin", "result": 19.2, "unit": "% bound"}
    ]},
    {"binder": "ACTGCCTAGGTTGGGTAGGGTGGTGGCAGT (ssDNA, PS linkage between nt 1 and 2)", "note": "[ARC2644]", "values": [
      {"measurement": "Kd", "setting": "[7]", "result": 0.183, "unit": "nM"}
    ]},
    {"binder": "TCCCATCGAGCTCAGTCTAGGATGGGTAGGGTGGTGGCTGAGGATCGATC (ssDNA)", "note": "[AMX(453)_B6]", "values": [
      {"measurement": "activity", "setting": "[8]", "result": 300, "unit": "s"}
    ]},
    {"binder": "TCCTGATCGGATGTGGTGGGTTATTGGTTTGGGTGGCTGAGGATCGATC (ssDNA)", "note": "[AMX(453)_F6]", "values": [
      {"measurement": "activity", "setting": "[8]", "result": 300, "unit": "s"}
    ]},
    {"binder": "TCCCGAGCGATATTGCCTAGGTTGGGTAGGGTGGTGGCTGAGGATCGATC (ssDNA)", "note": "[AMX(454)_F2]", "values": [
      {"measurement": "activity", "setting": "[8]", "result": 300, "unit": "s"}
    ]},
    {"binder": "GGTTGGGTAGGGTGG (ssDNA)", "note": "[Minimer 3]", "values": [
      {"measurement": "activity", "setting": "[9]", "result": 25.8, "unit": "s"}
    ]},
    {"binder": "GGCCGATCAGGCTAGGTTGGGTAGGGTGGTGGCTGAGGATCGGCC (ssDNA)", "note": "[Minimer 7]", "values": [
      {"measurement": "activity", "setting": "[9]", "result": 83.3, "unit": "s"}
    ]},
    {"binder": "CCGGCTAGGTTGGGTAGGGTGGTGGCTGG (ssDNA)", "note": "[Minimer 11]", "values": [
      {"measurement": "activity", "setting": "[9]", "result": 27.9, "unit": "s"}
    ]},
    {"binder": "CGCCTAGGTTGGGTAGGGTGGTGGCG (ssDNA, 5'-hexylamine)", "note": "[ARC2324]", "values": [
      {"measurement": "activity", "setting": "[10]", "result": 424, "unit": "s"}
    ]},
    {"binder": "ACTGCCTAGGTTGGGTAGGGTGGTGGCAGT (ssDNA, 5'-PEG 10 kDa via hexylamine)", "note": "[ARC2323]", "values": [
      {"measurement": "activity", "setting": "[10]", "result": 514, "unit": "s"}
    ]},
    {"binder": "CGCCTAGGTTGGGTAGGGTGGTGGCG (ssDNA, 5'-PEG 10 kDa via hexylamine)", "note": "[ARC2329]", "values": [
      {"measurement": "activity", "setting": "[10]", "result": 664, "unit": "s"}
    ]},
    {"binder": "CGCTAGGTTGGGTAGGGTGGTGCG (ssDNA, 2'-OMe at positions 1, 2, 23, 24)", "note": "[ARC2949]", "values": [
      {"measurement": "activity", "setting": "[2]", "result": 403, "unit": "s"}
    ]}
  ]
}
